Test results published in PMC7597677.

Target: cGMP phosphodiesterase 6 (PDE6) hetero-tetramer, native bovine (bovine) (UniProt P11541)
Assay: cryo-EM structure

Sequence of UniProt P11541 (P11541 whole entry, chain 1 of 3): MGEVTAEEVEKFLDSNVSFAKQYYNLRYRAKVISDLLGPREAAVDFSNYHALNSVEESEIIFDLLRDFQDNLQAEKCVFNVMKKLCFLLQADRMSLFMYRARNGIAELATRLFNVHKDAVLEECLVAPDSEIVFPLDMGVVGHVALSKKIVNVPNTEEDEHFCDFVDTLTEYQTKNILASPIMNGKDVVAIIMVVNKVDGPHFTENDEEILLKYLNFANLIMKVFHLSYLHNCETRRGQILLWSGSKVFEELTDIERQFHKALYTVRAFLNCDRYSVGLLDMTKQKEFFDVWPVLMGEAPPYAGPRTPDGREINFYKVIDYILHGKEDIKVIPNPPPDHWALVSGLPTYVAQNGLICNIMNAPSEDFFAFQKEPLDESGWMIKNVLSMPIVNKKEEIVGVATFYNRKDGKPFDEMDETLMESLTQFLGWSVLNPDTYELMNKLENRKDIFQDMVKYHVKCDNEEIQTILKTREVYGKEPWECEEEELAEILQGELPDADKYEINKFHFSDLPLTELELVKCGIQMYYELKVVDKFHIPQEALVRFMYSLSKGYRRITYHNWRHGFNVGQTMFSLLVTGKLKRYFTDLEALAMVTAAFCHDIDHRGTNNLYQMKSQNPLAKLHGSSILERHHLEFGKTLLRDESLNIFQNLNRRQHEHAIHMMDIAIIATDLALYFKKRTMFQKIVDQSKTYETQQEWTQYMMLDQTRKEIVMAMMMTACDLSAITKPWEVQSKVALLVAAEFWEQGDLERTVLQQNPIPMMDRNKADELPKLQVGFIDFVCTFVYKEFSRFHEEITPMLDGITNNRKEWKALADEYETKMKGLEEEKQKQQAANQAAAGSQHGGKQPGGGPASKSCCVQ
Sequence of UniProt P11541 (P23439 whole entry, chain 2 of 3, further chain): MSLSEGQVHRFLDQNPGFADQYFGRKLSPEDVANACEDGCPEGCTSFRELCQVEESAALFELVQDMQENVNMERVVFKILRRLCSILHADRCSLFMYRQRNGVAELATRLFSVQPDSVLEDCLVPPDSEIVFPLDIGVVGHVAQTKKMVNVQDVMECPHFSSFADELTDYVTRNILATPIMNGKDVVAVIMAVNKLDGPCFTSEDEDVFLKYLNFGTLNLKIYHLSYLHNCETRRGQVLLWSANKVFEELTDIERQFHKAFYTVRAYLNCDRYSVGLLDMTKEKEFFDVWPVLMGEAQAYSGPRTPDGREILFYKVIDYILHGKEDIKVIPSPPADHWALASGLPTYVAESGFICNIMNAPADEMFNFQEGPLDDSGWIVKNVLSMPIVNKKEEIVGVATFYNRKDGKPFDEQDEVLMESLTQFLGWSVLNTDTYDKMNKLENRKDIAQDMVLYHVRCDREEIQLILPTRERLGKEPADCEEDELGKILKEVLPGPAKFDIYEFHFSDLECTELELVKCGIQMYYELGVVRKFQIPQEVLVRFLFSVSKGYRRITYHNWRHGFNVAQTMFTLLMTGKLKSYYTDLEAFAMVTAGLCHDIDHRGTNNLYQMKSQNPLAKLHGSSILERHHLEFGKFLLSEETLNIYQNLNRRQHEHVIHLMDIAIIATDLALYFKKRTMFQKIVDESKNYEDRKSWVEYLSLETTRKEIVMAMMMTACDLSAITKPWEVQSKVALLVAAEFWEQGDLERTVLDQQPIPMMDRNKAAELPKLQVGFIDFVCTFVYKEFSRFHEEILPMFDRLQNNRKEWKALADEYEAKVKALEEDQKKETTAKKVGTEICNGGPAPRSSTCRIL
Sequence of UniProt P11541 (P04972 whole entry, chain 3 of 3, further chain): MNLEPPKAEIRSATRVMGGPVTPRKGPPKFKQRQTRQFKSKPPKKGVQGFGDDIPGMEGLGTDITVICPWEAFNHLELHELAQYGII

**Q.** “1D4-tagged recombinant GαT subunit (R174C, Q200L), GTP-bound (from UniProt P04695 1-350) (natural protein)” was tested. Which stoichiometry N (GαT·GTP per PDE6 hetero-tetramer) did it give?
**A.** 2
